Assay results: the nanobody polyreactivity screen of Harvey et al. (2022)

Experiment: yeast display, Sf9 membrane polyspecificity reagent, FACS + sequencing; frameworks hold sequencing errors
How it was run: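 In a synthetic yeast display library (Saccharomyces cerevisiae BJ5465), nanobody expression was induced with galactose for 36–48 hours. FACS gates were set low and high (top ~1%) using anti-HA fluorescence for expression and streptavidin fluorescence for binding of the Sf9 membrane reagent. Each polyreactivity label is drawn from the gate of origin.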

Sequence	polyreactivity (PSR sort gate)
QVQLVESGGGLVQAGGSLRLSCADSGSTLYRYAMGWYRQAPGKERELVDAISSAGSTHYADSVKGRFTISRDNAKNTVYLQMNSLKPEDTAVYYCNAVRKTFDYNYWGQGTQVTVSS	high polyreactivity
QVQLVESGGGLVQAGGSLRLSCADSVSIFRVNAKRWYTQAPGKERELVAGISSRGGTSTYYADSVKGRFTISRDNAKNTVYLQMNSLKPEDTAVYYCNKTDITTSRHDYWRQGTQVTVSS	low polyreactivity
QVQLVESGGGLVQAGGSLRLSCADSVSTFQPNAMGSYRQAPGKERELVAAISRGGSTKYAYSVKGRITISRDSAKNTVYLQMNSLKPEDTAVYYRAVVFYRHVGYSGYYYWGQGTQVTVSS	low polyreactivity
QVQLVESGGGLVQAGGSLRLSCAESGLTFWDYVMGWYRQAPGKEMELVAAISDSGGDTYYADSVKGRFTISRDNAKNTVYLQMNSLKPEDTAVYYCAAEYAEYVLEYYRLYEYWGQGTQVTVSS	high polyreactivity
QVQLVESGGGLVQAGGSLRLSCAEYDMGWYRQAPGKERELVATITARGGSTYADSVKGRFTISRDNAKNTVYLQMNSLKPEDTAVYYCAADRFFWLRSYPRYYYWGQGTQVTVSS	low polyreactivity
QVQLVESGGGLVQAGGSLRLSCAGSGFSFPNNGMGGYRQAPGKERELVAAIRSSGGSTYYADSVKGRFTISRDNAKNTVYLQMNSLKPEDTAVYYCNARRRGGYVGRPRYPVAAYDYWGQGTQVTVSS	low polyreactivity
QVQLVESGGGLVQAGGSLRLSCAGSGIIFHLYAMGWYRQAPGKERELVAAISWNGSSTYYADSVKGRFTISRDNAKNTVYLQMNSLKPEDTAVYYCAASYGYFEDYGYWGQGTQVTVSS	low polyreactivity
QVQLVESGGGLVQAGGSLRLSCAGSGRIFGGYAMGWYRQAPGTERELVAAISRRGGSTYYADSVKGRFTISRDNAKNTVYLQMNSLKPEDTAVYYCARDYGGVGAPGSAGAYDYWGQGTQVTVSS	high polyreactivity
QVQLVESGGGLVQAGGSLRLSCAGSGRIFSENAMGWYRQAPGKERELVAAISVSGGSTYYADSVKGRFTISRDNAKNTVYLQMNSLKPEDTAVYYCAAEYLAYYSGYDYWGQGTQVTVSS	high polyreactivity
QVQLVESGGGLVQAGGSLRLSCAGSGSIFYQYAMGWYRQAPGKERELVAAISDSGGSTHYADSVKGRFTISRDNAKNTVYLQMNSLKPEDTAVYYCPANLYYQYGGDYWGQGSQVTVSS	low polyreactivity
QVQLVESGGGLVQAGGSLRLSCAGSGSIFYSNAMGWSRPAPGKERELVAAICWNGGRTYYADSVKGRFTISRDNAKNTVYLQMNSLKPEDTAVYYCAAKYRNRYDYWGHGTQVTVSS	low polyreactivity
QVQLVESGGGLVQAGGSLRLSCAGSGSTFPRYPMGWYRQAPGKERELVAAISYSGGRTYYADSVKGRFTISRDYAKNTVYLQMNSLKAEDTAVYYCKKRWRGAGTSYDYWGQGTQGTVSS	high polyreactivity
QVQLVESGGGLVQAGGSLRLSCAGSGSTFRSNAMGWYRQAPGKERELVAAISRSGGRTYYADSVKGRFTISRDNAKNTVYLQMNSLKPEDTAVYYCNTVLKRQRKNEYWGQGTQVTVSS	high polyreactivity
QVQLVESGGGLVQAGGSLRLSCAGSGSTLTWNDMGWYRHAPGKERELVASITQSGDSTYYADSVKGRFTISRDNAKNTVYLQMNSLKPEDTAVYYCSGVYTYPLGYYHYTYDYWGQGTQVTVSS	low polyreactivity
QVQLVESGGGLVQAGGSLRLSCAPCGSIFSSYAMGWYRQAPGQDWELVAAISSGGCITYYADSVKGRFTISRDNAKNTVYLQMHSLKPEDTAVYYCNARVARSNYGWYYDWGQGTQVTVSS	high polyreactivity
QVQLVESGGGLVQAGGSLRLSCAPSAGTFSPYDMGWSRQSPGKQRELVASITGSGGSTYFADSVKGRFTISRGNAKNTVYLQMNSLKPEDTAVYYCDAQGYWTYWPYLLRLYDYWGQGTQVTVSS	low polyreactivity
QVQLVESGGGLVQAGGSLRLSCAPSGFIFGSHAMGWYRQARGKERELVAAISARGGRTYYADSVKERFTISRDNAKNTVYLQMNSLKPADSAVYYCATLDTTGVNYWGQGTQVTVSS	high polyreactivity
QVQLVESGGGLVQAGGSLRLSCAPSGFIFGSYAMGWYTQAPGKERELVAAISRSGGRTYYADSVKGRFTISRDNAKNTVYLQMNSLKPEDSAVYYCAAVHLLVYPTYDSWGQGTQVTVSS	high polyreactivity
QVQLVESGGGLVQAGGSLRLSCAPSGFIFHKYVMGWYRQAPGKERELVAAISRSGASTYYADSVKGRFTISRDNAKNTVYLQMNSLKPEDTAVYYCNAQPGKWEYDYWGQGTQVTVSS	high polyreactivity
QVQLVESGGGLVQAGGSLRLSCAPSGFIFYFYTMGRYRQAPGKEMELVAGITWLDGSTYYADSVKGRLTISRDNAKNTVYLQRNSLKPEDTAVYYCAVDYDLVVSPYYYWGQGTQVTVSS	low polyreactivity
QVQLVESGGGLVQAGGSLRLSCAPSGFTFRFYVMGWYRQAPGKERELVAAISSSGGSTYYADSVKGRFTISRDNAKYTVYLQMNSMKPEDTAVYYCAADVPGARVSYWTYSGWHYDYWGQGTQVTVSS	high polyreactivity

Sequence	polyreactivity (PSR sort gate)
QVQLVESGGGLVQAGGSLRLSCAPSGGTFVSYVMGWYRQAPGKERELVAAISVSGGRTYYADSVKGRFTISRDNAKNTVYLQMNSLKPEDTAVYYCAADSVVVGSPGNDYWGQGTQVTVSS	high polyreactivity
QVQLVESGGGLVQAGGSLRLSCAPSGIIFRIYAMGWYRQAPGKEREFVAAISGSGDSTYYADSVKGRFTISRDNAKNTVYLQMNSLKPEDTAVYYCAADWTLVYYHEDYWGQGSQVTVSS	high polyreactivity
QVQLVESGGGLVQAGGSLRLSCAPSGIIFYAYAMGWYRQAPGKEREFVAAINNSGGRTYYADSVKGRFTISRDNAKNTVYLQMNSLKPEDTAVYYCAVYSYYRRTYRREMDYWGQGTQVTVSS	high polyreactivity
QVQLVESGGGLVQAGGSLRLSCAPSGISIIGYAMGWYRQAPGKVRELVASIDSGGITNYADSVKGRFTISRDNAKNTVYLQMNSLKPEDTAVYDCAARVAYFGGPYYSWGEGTQVTVSS	high polyreactivity
QVQLVESGGGLVQAGGSLRLSCAPSGLIFASYAMGWYRQAPGKERELVAAITSSGGSTYYADSVKGRFTISRDNAKNTVYLQMNSLKPEDTAVYYCAADIYTYNLFYHWRWLDYNYWGQGTQVTVSS	high polyreactivity
QVQLVESGGGLVQAGGSLRLSCAPSGNTFGRNAMGWYRQAPGKERELVAAISFSGSRTYYADSVKGRFTISRDNAKNTVYLQMSSLKPEDTAVYYCNKRGADWTGFFYYEYDYWGQGTQVTVSS	low polyreactivity
QVQLVESGGGLVQAGGSLRLSCAPSGRIFFYYVMGWYRQAPGKERELVAAITRSGGSTYYADSVKGRFTISRDNAKNTVYLQMNSLKPEDTAVYYCAVGDGFEFDWGQGTQVTVSS	low polyreactivity
QVQLVESGGGLVQAGGSLRLSCAPSGRIFHYNAMGWYRQAPGKERELVAAIDYGGSSTYYADSVKGRFTISRDNAKNTVYLEMNSLKPEDTAVYYCWGQATQVTVSS	low polyreactivity
QVQLVESGGGLVQAGGSLRLSCAPSGRIFQANAMGWYRQAPGKERELVASISSGVSTNYADYVKGRFTISRDNAKNTVYLQMNSQKQEDTGVYYCADSDPSSAYWVGYYWYDNWGQGTQVTVSS	low polyreactivity
QVQLVESGGGLVQAGGSLRLSCAPSGRIFQYYTMGWSRQAPGKDRELVATISRRGGRTYYADSVKGRFTISRDNAKNTVYLQKNSLKPEDTAVYYCAARTYSYEYDYWGQGTQVTVSS	high polyreactivity
QVQLVESGGGLVQAGGSLRLSCAPSGRIFRTNTMGWYRQAPGKERELVAAITRGGSTYYADSVKGRFTISRDNAKNTDYLQMKSLKPEDTAVYYCAASRYYNTVHNGGDYWGQGTQVTVSS	high polyreactivity
QVQLVESGGGLVQAGGSLRLSCAPSGRIFTRYAMGWYRQAPGKERELVAASSSSGGSTYYADSVKGRFTISRDNAKNTVYLQMTSLKPEDTAVYYCNRGGWYAYYWGQGTQVTVSS	high polyreactivity
QVQLVESGGGLVQAGGSLRLSCAPSGRIFYSYAMGWYRQAPGKVRELVAAIRSRGGSTRYADSVKGRFTISRDNAKNNVYLQMNSLKPEDTAVYYCAATGYQSRGSSDYWGQGTQVSVSS	high polyreactivity
QVQLVESGGGLVQAGGSLRLSCAPSGRIFYYYAKGWYRQAPGKERELVAAINSGGSTNYADSVKGRFTISRDNAKNTVYLQMNSLKPEDTAVYYCAADAKLVSEFDYWGQGTQVTVSS	low polyreactivity
QVQLVESGGGLVQAGGSLRLSCAPSGRIVYYYAMGWYRHAPGKERELVASITFSGGRTFYADSVKGRFTITRDYAKNTVYLQMNSVTPEDTAVYYGAAVRCGRRSGGLVAEYDYWGQGTQVSVSS	high polyreactivity
QVQLVESGGGLVQAGGSLRLSCAPSGRMFVFYTMGWYRPAPGKESELVAYINSGGSTYYADSVKGRFTISRDNAKNSVYLQMNSLKPEDTAVYYCAAGPCRGPDSRWRYKYDYWGQGTQVTVSS	high polyreactivity
QVQLVESGGGLVQAGGSLRLSCAPSGRTFIFYAMGWYRQAPGKERELVAAISSSGSGTYYADSLKGRFTISRDNAKNTVYLQMNSLKPEDTAVYSCAAAVVNSRRRPKYGYWGQGTQVTVSS	low polyreactivity
QVQLVESGGGLVQAGGSLRLSCAPSGRTFNYNAMGWYRQAPGKERELVAAITSSGGGTSYADSVKGRFTISRDNAKNTVYFQMNSLKPYYTAVYYCAAEVDRGKYCSTYRGGDYCGQGTQVTVSS	high polyreactivity
QVQLVESGGGLVQAGGSLRLSCAPSGRTFRYYAMGWYRQAPGKERELVATISKSGGSTYYADSVKGRFTISRDNAKNTVYLQMNSLKPEDTAVYYCAAPIYNGYASWQVYYWGQGTQVTVSS	high polyreactivity
QVQLVESGGGLVQAGGSLRLSCAPSGRTFTAYAMGWYRQAPGKERELVAAITSGGSTYYADSVKGRFTISRDNAKNTVYLKRKSLKPEDTAVYYCATDLYSFYWPEYEYWGQGTQVTLSS	low polyreactivity
